Laboratory results from US20250257130A1 (NONA BIOSCIENCES SUZHOU, published 2025).
Where a chain is given by its changes, count along the chain named. Blank lines part the entries; values can stand above or below the binder they belong to.

Key:
[1] = target: T1, human ROR1 on cells (HEK293T-hROR1, PANC-1, A549) (human, UniProt Q01973 30-937); assay: flow cytometry, HEK293T-hROR1 cells
T1 construct: whole, on cells; one molecule for the three cell lines; also called huROR1; cell surface ROR1
Procedure: (§1) In brief, anti-ROR1 antibodies were serially diluted in staining buffer (PBS containing 2% FBS). Antibody solution was incubated with 1×10⁵ cells at 4° C. for 1 hour. […] After 1-hour incubation at 4° C., cells were washed twice with staining buffer and subjected to flow cytometry. PR000374 (Bench marker 1) and non-relevant IgG isotype control (Crownbio) were used as positive and negative controls, respectively.

[2] = target: T1, human ROR1 on cells (HEK293T-hROR1, …); assay: flow cytometry on HEK293T-hROR1 cells, MFI (Mean)
Procedure: (§2) Binding of recombinant anti-ROR1 antibodies to human or cynomolgus ROR1-overexpressing cells was tested by flow cytometry. In this example, ROR1-expressing cell lines are HEK293T cell lines that had been transfected to express human ROR1 on the surface (HEK293T-hu ROR1, KYINNO BIOTECHNOLOGY CO., LTD, Catalog #KC-1018), CHO-K1 cell lines that had been transfected to express cynomolgus ROR1 (CHOK1-cyno ROR1), PANC-1 (ATCC, catalog: CRL-1469) or A549 cell lines (Shanghai Institute of Biochemistry and Cell Biology, Chinese Academy of Sciences).
as §1

[3] = target: T2, cynomolgus ROR1 on CHO-K1-cynoROR1 cells (cynomolgus monkey, UniProt A0A2K5WTX7 30-937); assay: flow cytometry on CHOK1-cynoROR1 cells, MFI (Mean) [bottom panel, letter not given]
T2 construct: whole, on cells
Procedure: as §2, §1

[4] = target: T3, hu-ROR2-ECD-his (Acrobiosystems RO2-H52E5) (human, UniProt Q01974 34-403); assay: ELISA, plate coated with hu-ROR2-his at 1 µg/mL
T3 construct: extracellular domain; bought protein; also called Human ROR2 his-tagged protein; Human ROR2, His Tag
Procedure: 1 μg/mL hu-ROR2-ECD-his (Acrobiocystems, RO2-H52E5) was added to the 96-well plate, 100 μL each well, incubated at 4° C. overnight, washing the plates with 1×PBST 3 times, 300 ul/well, blocking the plates with 2% BSA in 1×PBST, 200 ul/well at 37° C. for 1 hour, anti-ROR1 antibodies were serially diluted in staining buffer (PBS containing 2% BSA). Antibody solution was added to the plate and incubates at 37° C. for 1 hour, washing the plates with 1×PBST 3 times, 300 ul/well, adding secondary antibody 100 ul/well and incubate at 37° C. for 1 hour, washing the plates with 1×PBST 3 times, 300 ul/well and then add 100 ul/well TMB for about 5 min, stop the reaction by adding 100 ul/well 2M H₂SO₄, read the plates with Molecular device spectra max plus384 at 450 nm and 570 nm.

[5] = target: T4, Human ROR1-ECD-his (Acro Biosystems RO1-H522y) (human, UniProt Q01973 30-406); assay: ELISA, plate coated with hu-ROR1-his at 1 µg/mL
T4 construct: extracellular domain; bought protein; also called hROR1-ECD-his; hu-ROR1-ECD-his
Procedure: (§3) Binding of recombinant anti-ROR1 antibodies to hu-ROR1-ECD-his was tested by ELISA. In brief, 1 μg/mL hu-ROR1-ECD-his was added to the 96-well plate, 100 μL each well, incubated at 4° C. overnight, washing the plates with 1×PBST 3 times, 300 ul/well, blocking the plates with 2% BSA in 1×PBST, 200 ul/well at 37° C. for 1 hour, anti-ROR1 antibodies were serially diluted in staining buffer (PBS containing 2% BSA). Antibody solution was added to the plate and incubates at 37° C. for 1 hour, washing the plates with 1×PBST 3 times, 300 ul/well, adding secondary antibody 100 ul/well and incubate at 37° C. for 1 hour, washing the plates with 1×PBST 3 times, 300 ul/well and then add 100 ul/well TMB for about 5 min, stop the reaction by adding 100 ul/well 2M H₂SO₄, read the plates with Molecular device spectra max plus384 at 450 nm and 570 nm.

[6] = target: T1, human ROR1 on cells (HEK293T-hROR1, …); assay: flow cytometry, PANC-1 cells
Procedure: as §1

[7] = target: T2, cynomolgus ROR1 on CHO-K1-cynoROR1 cells; assay: flow cytometry, CHO-K1-cynoROR1 cells
Procedure: as §1

[8] = target: T1, human ROR1 on cells (HEK293T-hROR1, …); assay: flow cytometry, A549 cells
Procedure: as §1

[9] = target: T4, Human ROR1-ECD-his (Acro Biosystems …); assay: BLI, ROR1-His on HIS1K sensor, antibody in solution
Procedure: In the example, binding kinetics of anti-ROR1 antibodies to soluble ROR1 protein were analyzed by using Bio-Layer Interferometry (BLI) analysis on Fortebio Octet Red384 instrument (Fortebio).
In BLI analysis, recombinant anti-ROR1 antibodies was serially diluted with 10× kinetics buffer (Fortebio). Human ROR1-His proteins were diluted to 20 nM. Then the diluted antibodies, ROR1 proteins and regeneration buffer (10 mM glycine HCl pH 1.5) were added to 96-well plates (Greiner). Rate constants for association and dissociation were measured using HIS1K sensor (Fortebio). The sensor surface was regenerated after each binding experiment with regeneration buffer. The traces were processed using Octet Data Analysis Software (version 11.0, Pall ForteBio, CA, USA).

[10] = target: T4, Human ROR1-ECD-his (Acro Biosystems …); assay: ELISA, coated hu-ROR1-ECD-his
Procedure: as §3

[11] = target: T3, hu-ROR2-ECD-his (Acrobiosystems …); assay: BLI, antibody on AHC sensor, ROR2-His in solution
Procedure: In the example, binding kinetics of anti-ROR1 antibodies to soluble ROR2 protein were analyzed by using Bio-Layer Interferometry (BLI) analysis on Fortebio Octet Red384 instrument (Fortebio). […] The captured biosensors were then dipped in wells containing 2-fold serial dilutions of antigen proteins to detect association signals, followed by dissociation steps in wells containing 1× kinetic buffer. Human ROR2 his-tagged protein (Acrobiosystems, #RO2-H52E5) was diluted from 600 nM to 37.5 nM; the association phase was 180 seconds, and the dissociation phase was 180 seconds. The sensorgrams were recorded and the reference signals were subtracted before curve fitting using ForteBio Data Analysis 11.0 software. Association rates (kₒₙ) and dissociation rates (kdis) were calculated using a simple one-to-one Langmuir binding model. The equilibrium dissociation constant (KD) was calculated as the ratio of kdis/kₒₙ.

[12] = target: T4, Human ROR1-ECD-his (Acro Biosystems …); assay: BLI in-tandem, row = 1st Ab; competitor (2nd Ab): PR000374
Source text: (§4) To determine if anti-ROR1 antibodies bind to human ROR1 on different or approximate binding epitopes, the ForteBio Octet® RED96e platform was used to perform epitope competition experiments on the anti-ROR1 antibodies. Human ROR1 protein (Acrobiosystems, #RO1-H522y) was biotinylated and then captured onto SA biosensors (ForteBio, #18-5020) to reach loading level of 0.3-0.4 nm. The in-tandem competition assay format was applied and it contains two association steps. Firstly, the antigen-loaded biosensors bind to each antibody (a.k.a, First antibody, 1st Ab) with a saturating concentration of 200 nM for 180 seconds to reach equilibrium and then secondly bind to the competing antibodies (a.k.a, Second antibody, 2nd Ab) of 200 nM for 180 seconds. The second binding signals were recorded as the 100% signal of each antibody when the first antibodies were replaced by kinetics buffer. All the binding data were analyzed using ForteBio Data Analysis 11.0 software. The inhibition rate is calculated by the following formula: […]

[13] = target: T4, Human ROR1-ECD-his (Acro Biosystems …); assay: BLI in-tandem, row = 1st Ab; competitor (2nd Ab): PR007417
Source text: as §4

[14] = target: T1, human ROR1 on cells (HEK293T-hROR1, …); assay: flow cytometry, PANC-1 cells; remark: listed apart in the source
Procedure: as §1
Binding activity of the variants to PANC-1 cells were tested using the same method described in example 5.1. The results were shown in FIGS. 7-8 and Table 11 and Table 12.

[15] = target: T4, Human ROR1-ECD-his (Acro Biosystems …); assay: BLI in-tandem, row = 1st Ab; competitor (2nd Ab): PR005340
Source text: as §4

[16] = target: T4, Human ROR1-ECD-his (Acro Biosystems …); assay: BLI in-tandem, row = 1st Ab; competitor (2nd Ab): PR005338
Source text: as §4

[17] = target: T4, Human ROR1-ECD-his (Acro Biosystems …); assay: BLI in-tandem, row = 1st Ab; competitor (2nd Ab): PR007424
Source text: as §4

[18] = target: T4, Human ROR1-ECD-his (Acro Biosystems …); assay: BLI, antibody on AHC sensor, ROR1-His 5-80 nM in solution
Procedure: The captured biosensors were then dipped in wells containing 2-fold serial dilutions of antigen proteins to detect association signals, followed by dissociation steps in wells containing 1× kinetic buffer. Human ROR1 hits-tagged protein (Acrobiosystems, #RO1-H522y) was diluted from 80 nM to 5 nM; the association phase was 180 seconds, and the dissociation phase was 600 seconds. The sensorgrams were recorded and the reference signals were subtracted before curve fitting using ForteBio Data Analysis 11.0 software. Association rates (kₒₙ) and dissociation rates (kdis) were calculated using a simple one-to-one Langmuir binding model. The equilibrium dissociation constant (KD) was calculated as the ratio of kdis/kₒₙ.

[19] = target: T1, human ROR1 on cells (HEK293T-hROR1, …); assay: flow cytometry on PANC-1 cells, MFI (Median-APC) [middle panel, letter not given]
[20] = target: T1, human ROR1 on cells (HEK293T-hROR1, …); assay: flow cytometry on PANC-1 cells, MFI (Median-APC) [bottom panel, letter not given]
[21] = target: T2, cynomolgus ROR1 on CHO-K1-cynoROR1 cells; assay: flow cytometry, CHO-K1-cynoROR1 cells; remark: listed apart in the source
Procedure: as §2, §1

[22] = target: T1, human ROR1 on cells (HEK293T-hROR1, …); assay: flow cytometry on PANC-1 cells, MFI (FITC-A Median)
Procedure: as §2, §1

T4 sequence (Q01973 30-406): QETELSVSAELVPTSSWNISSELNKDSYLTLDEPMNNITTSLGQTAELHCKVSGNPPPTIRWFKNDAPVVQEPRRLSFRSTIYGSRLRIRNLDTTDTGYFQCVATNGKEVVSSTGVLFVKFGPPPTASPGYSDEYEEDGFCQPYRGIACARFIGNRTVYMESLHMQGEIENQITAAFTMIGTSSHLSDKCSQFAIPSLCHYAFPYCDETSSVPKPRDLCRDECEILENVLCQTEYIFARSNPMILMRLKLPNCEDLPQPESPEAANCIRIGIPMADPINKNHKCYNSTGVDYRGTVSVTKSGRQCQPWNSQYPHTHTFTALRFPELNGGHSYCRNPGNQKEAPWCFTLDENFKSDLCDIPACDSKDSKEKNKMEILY
T3 sequence (Q01974 34-403): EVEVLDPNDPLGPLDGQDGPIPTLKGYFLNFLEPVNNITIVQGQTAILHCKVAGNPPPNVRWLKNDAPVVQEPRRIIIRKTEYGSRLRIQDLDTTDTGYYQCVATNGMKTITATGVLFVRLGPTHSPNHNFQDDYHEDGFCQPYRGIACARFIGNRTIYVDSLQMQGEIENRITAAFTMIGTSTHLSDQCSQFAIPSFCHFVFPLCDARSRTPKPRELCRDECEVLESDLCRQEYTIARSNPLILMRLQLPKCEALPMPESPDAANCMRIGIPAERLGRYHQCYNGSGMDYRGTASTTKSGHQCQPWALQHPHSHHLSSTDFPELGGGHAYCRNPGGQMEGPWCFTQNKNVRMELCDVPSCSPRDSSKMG
T1 sequence (Q01973 30-937): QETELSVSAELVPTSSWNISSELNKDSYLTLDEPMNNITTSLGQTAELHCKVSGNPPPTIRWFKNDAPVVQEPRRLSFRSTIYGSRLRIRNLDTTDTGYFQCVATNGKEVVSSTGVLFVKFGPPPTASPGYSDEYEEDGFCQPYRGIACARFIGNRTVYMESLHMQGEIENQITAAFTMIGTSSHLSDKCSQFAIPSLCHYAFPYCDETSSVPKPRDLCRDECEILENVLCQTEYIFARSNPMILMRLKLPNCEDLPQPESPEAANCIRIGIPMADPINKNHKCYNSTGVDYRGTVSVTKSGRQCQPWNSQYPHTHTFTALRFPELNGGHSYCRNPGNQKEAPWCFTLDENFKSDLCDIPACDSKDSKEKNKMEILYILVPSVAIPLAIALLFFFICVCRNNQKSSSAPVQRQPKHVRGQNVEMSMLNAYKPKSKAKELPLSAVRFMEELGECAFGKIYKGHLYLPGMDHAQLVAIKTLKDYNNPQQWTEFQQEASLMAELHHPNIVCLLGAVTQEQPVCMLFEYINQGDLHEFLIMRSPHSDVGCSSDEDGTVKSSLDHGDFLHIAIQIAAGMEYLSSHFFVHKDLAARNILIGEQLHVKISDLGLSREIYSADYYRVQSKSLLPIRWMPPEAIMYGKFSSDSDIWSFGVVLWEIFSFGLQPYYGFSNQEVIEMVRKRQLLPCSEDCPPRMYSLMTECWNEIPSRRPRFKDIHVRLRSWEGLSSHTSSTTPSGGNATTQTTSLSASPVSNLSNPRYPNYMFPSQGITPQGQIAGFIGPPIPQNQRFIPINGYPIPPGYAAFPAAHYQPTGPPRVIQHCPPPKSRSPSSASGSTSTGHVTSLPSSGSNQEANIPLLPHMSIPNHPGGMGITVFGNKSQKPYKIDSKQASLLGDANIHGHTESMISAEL

B2: PR007417 (antibody, V domains shown)
VH: EVQLVESGGGLVKPGGSLRLSCAASGFTFSDFYMSWIRQAPGKGLEWISYISSSGSTRYYADSVKGRFTISRDNAKNSLYLQMNSLRAEDTAIYYCARDIPSSSSDWVDLQFDYWGQGTLVTVSS
notes: bivalent form (HCAb) variant of PR005340, no light chain
- binding result [11]: no binding (tested: 37.5-600 nM)
- Inhibition (%) [12]: 10.2%
- Inhibition (%) [13]: 113%
- TOP [14]: 83800
- Inhibition (%) [15]: 116%
- Inhibition (%) [16]: 114%
- Inhibition (%) [17]: 111%
- Kd [18]: 0.18 nM
- koff [18]: 4.86e-05 s⁻¹
- kon [18]: 271000 M⁻¹ s⁻¹
- EC50 (read off the curve) [19]: ~0.8 nM

B3: PR007424 (antibody, V domains shown)
VH: B2 VH with F32Y, S52D, S56R, T57P, R58L, Y59A, I100M, D109S
notes: as for B2
- binding result [11]: no binding (tested: 37.5-600 nM)
- Inhibition (%) [12]: -0.73%
- Inhibition (%) [13]: 111%
- EC50 (read off the curve) [20]: ~0.6 nM
- TOP [14]: 70800
- Inhibition (%) [15]: 111%
- Inhibition (%) [16]: 108%
- Inhibition (%) [17]: 107%
- Kd [18]: 1.01 nM
- koff [18]: 0.000284 s⁻¹
- kon [18]: 281000 M⁻¹ s⁻¹

Next, values leading:

- EC50 [1]: 0.066 µg/mL
- MAX(MFI) [1]: 1.55e+07 MFI
- EC50 (read off the curve) [2]: ~0.06 µg/mL
- EC50 (read off the curve) [3]: ~0.06 µg/mL
- binding result [4]: no binding (tested: about 15 µg/ml)
- EC50 (read off the curve) [5]: ~0.004 µg/mL
- MAX(MFI) [6]: 935000 MFI
- EC50 [7]: 0.057 µg/mL
- MAX(MFI) [7]: 1.07e+07 MFI
- EC50 [8]: 0.08 µg/mL
- MAX(MFI) [8]: 1.23e+06 MFI
- Kd [9]: 4.89 nM
- koff [9]: 0.00626 s⁻¹
- kon [9]: 1.28e+06 M⁻¹ s⁻¹
- EC50 [10]: 0.004 µg/mL
B1: PR303201 (antibody, human IgG1, V domains shown)
VH: EVQLLESGGGLVQPGGSLRLSCAASGFTFSGNAMSWVRQAPGKGLEWVSAISGSGDKTYYAASVKGRFTISRDNSNNTVYLQMNSLRAEDTAVYYCEKGAFRTTMDYWGQGTLVTVSS
notes: HCAb (heavy chain-only, human IgG1 Fc), no light chain

- Max [21]: 27500
- EC50 (read off the curve) [22]: ~20 nM
- Max [6]: 10900
B4: PR005351 (antibody, human IgG1, V domains shown)
VH: QVQLVESGGGLVKPGGSLRLSCAASGFKLSDFQMSWIRQAPGKGLEWVAYIDTNGSTRYYAESVKGRFTLSRDNVKNSLNLQMNGLRAEDTALYYCARIPSYTSSWYEDFDHWGQGTLVTVSS
notes: as for B1
